B1: Protein Rep68 (Adeno-associated virus 2 (isolate Srivastava/1982)), P03132 (parent)
chain: MPGFYEIVIKVPSDLDGHLPGISDSFVNWVAEKEWELPPDSDMDLNLIEQAPLTVAEKLQRDFLTEWRRVSKAPEALFFVQFEKGESYFHMHVLVETTGVKSMVLGRFLSQIREKLIQRIYRGIEPTLPNWFAVTKTRNGAGGGNKVVDECYIPNYLLPKTQPELQWAWTNMEQYLSACLNLTERKRLVAQHLTHVSQTQEQNKENQNPNSDAPVIRSKTSARYMELVGWLVDKGITSEKQWIQEDQASYISFNAASNSRSQIKAALDNAGKIMSLTKTAPDYLVGQQPVEDISSNRIYKILELNGYDPQYAASVFLGWATKKFGKRNTIWLFGPATTGKTNIAEAIAHTVPFYGCVNWTNENFPFNDCVDKMVIWWEEGKMTAKVVESAKAILGGSKVRVDQKCKSSAQIDPTPVIVTSNTNMCAVIDGNSTTFEHQQPLQDRMFKFELTRRLDHDFGKVTKQEVKDFFRWAKDHVVEVEHEFYVKKGGAKKRPAPSDADISEPKRVRESVAQPSTSDAEASINYADRLARGHSL
partner: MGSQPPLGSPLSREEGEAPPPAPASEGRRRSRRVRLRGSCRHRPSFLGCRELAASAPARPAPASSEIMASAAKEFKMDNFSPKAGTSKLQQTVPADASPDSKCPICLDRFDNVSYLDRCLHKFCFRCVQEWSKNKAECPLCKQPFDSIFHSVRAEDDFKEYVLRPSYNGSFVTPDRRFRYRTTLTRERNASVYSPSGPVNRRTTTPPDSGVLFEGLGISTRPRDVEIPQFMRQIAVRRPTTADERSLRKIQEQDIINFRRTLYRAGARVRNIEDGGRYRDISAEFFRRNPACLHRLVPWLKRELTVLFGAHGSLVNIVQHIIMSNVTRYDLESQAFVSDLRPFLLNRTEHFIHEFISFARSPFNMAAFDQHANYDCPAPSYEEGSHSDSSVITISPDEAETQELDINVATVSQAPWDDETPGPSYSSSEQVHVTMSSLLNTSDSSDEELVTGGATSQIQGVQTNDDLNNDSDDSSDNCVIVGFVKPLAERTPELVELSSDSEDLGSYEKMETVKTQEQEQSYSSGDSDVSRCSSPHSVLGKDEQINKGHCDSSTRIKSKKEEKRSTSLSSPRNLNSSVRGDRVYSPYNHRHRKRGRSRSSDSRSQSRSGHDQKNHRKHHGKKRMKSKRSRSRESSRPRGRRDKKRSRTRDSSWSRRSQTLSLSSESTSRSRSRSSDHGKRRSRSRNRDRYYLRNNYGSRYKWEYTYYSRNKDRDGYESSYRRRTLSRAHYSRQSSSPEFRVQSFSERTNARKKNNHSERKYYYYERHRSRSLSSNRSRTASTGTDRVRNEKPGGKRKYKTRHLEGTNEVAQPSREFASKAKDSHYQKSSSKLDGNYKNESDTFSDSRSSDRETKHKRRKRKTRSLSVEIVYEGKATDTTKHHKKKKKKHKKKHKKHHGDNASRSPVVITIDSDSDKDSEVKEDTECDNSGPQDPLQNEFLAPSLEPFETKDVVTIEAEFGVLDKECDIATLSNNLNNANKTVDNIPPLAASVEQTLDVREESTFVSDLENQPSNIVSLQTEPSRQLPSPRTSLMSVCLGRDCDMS

Results on one variant are retold here after IntAct's records for PubMed 11842245.

Variants of B1 are the subject of the assay. The following applies: with toprs_human TOPORS.
Consider MPGFYEIVIKVPSDLDGHLPGISDSFVNWVAEKEWELPPDSDMDLNLIEQAPLTVAEKLQRDFLTEWRRVSKAPEALFFVQFEKGESYFHMHVLVETTGVKSMVLGRFLSQIREKLIQRIYRGIEPTLPNWFAVTKTRNGAGGGNKVVDECYIPNYLLPKTQPELQWAWTNMEQYLSACLNLTERKRLVAQHLTHVSQTQEQNKENQNPNSDAPVIRSKTSARYMELVGWLVDKGITSEKQWIQEDQASYISFNAASNSRSQIKAALDNAGKIMSLTKTAPDYLVGQQPVEDISSNRIYKILELNGYDPQYAASVFLGWATKKFGKRNTIWLFGPATTGHTNIAEAIAHTVPFYGCVNWTNENFPFNDCVDKMVIWWEEGKMTAKVVESAKAILGGSKVRVDQKCKSSAQIDPTPVIVTSNTNMCAVIDGNSTTFEHQQPLQDRMFKFELTRRLDHDFGKVTKQEVKDFFRWAKDHVVEVEHEFYVKKGGAKKRPAPSDADISEPKRVRESVAQPSTSDAEASINYADRLARGHSL [K340H], for which the “effect of a mutation on the interaction” value is given as “increasing interaction”.
